Test results from patent publication WO2013091903A1 (dated 2013).
Residue numbers refer to the chain shown, from its start.

T1: Peptide 1455 (part of the second extracellular loop of human ORAI1) (human)
T1 peptide: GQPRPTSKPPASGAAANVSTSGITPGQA

T2: Peptide 1415 (entire second extracellular loop of human ORAI1) (human)
T2 peptide: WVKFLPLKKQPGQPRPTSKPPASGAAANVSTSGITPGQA

T3: Peptide 1454 (part of the second extracellular loop of human ORAI1) (human)
T3 peptide: PASGAAANVSTSGITPGQA

B1: M-hCRAC1415-15F3A6 (antibody, IgG1, V domains shown)
VH: QVQLQQSGAELVRPGSSVKISCKASGYAFSSYWMNWVKQRPGQGLEWIGHIYPGDADTNYNGKFKGKATLTADKSSSTAYMHLSSLTSEDSAVYFCSRQLGFRYAMDYWGQGTSVTVSS
VL: DIVMSQSPSSLAVSAGEKVTMSCKSSQSLLNSRTRKNYLAWYQQKPGQSPKLLIYWASTRESGVPDRFTGSGSGTDFTLTISSVQAEDLAVYYCKQSYNLRTFGGGTKLEIKR
notes: same variable domains as 17F6A2
B2: M-hCRAC1415-17F1A4B6 (antibody, IgG1, V domains shown)
VH: B1 VH
VL: B1 VL
notes: as for B1
B3: M-hCRAC1415-15F45A1 (antibody, IgG1, V domains shown)
VH: B1 VH
VL: B1 VL
notes: as for B1
B4: M-hCRAC1415-17F6A2 (antibody, mouse IgG1, V domains shown)
VH: B1 VH
VL: B1 VL
notes: Mouse monoclonal, kappa light chain; also called Anti-M-CRAC1415-17F6A2
B5: M-hCRAC1415-14F74A1 (antibody, mouse IgG1, V domains shown)
VH: B1 VH with A56G, H82Q, S85G, S97A, Q99S, L100G, G101R, F102L, Y104F
VL: B1 VL with K112Q
notes: Mouse monoclonal, kappa light chain; also called Anti-M-CRAC1415-14F74A1
B6: anti-M-CRAC1415-10F8 A2B6C1 (antibody, IgG1, V domains shown)
VH: QVQLQQSGAELVRPGSSVKISCKASGYAFRSYWMNWVKQRPGQGLEWIGHIYPGDGDTNYNGKFKGKATLTADKSSSTAYMQLSSLTSEDSAVYLCGRGGTTVVVDYWGQGTTLTVSS
VL: DIVMSQSPSSLAVSAGEKVTMSCKSSQSLLNSRTRKNYLAWYQQKPGQSPKLLIYWASTRESGVPDRFTGSGSGTDFTLTISSVQAEDLAVYYCKQSYNLPWTFGGGTKLEIKR

Molecular target: T1, Peptide 1455 (part of the second …)
Assay: direct peptide ELISA, peptide coated at 1 ug/ml; (+) indicates binding was detected

Row | Binder | binding result
1 | B1 | binds
2 | B2 | binds
3 | B3 | binds
4 | B4 | binds
5 | B5 | binds

Molecular target: T2, Peptide 1415 (entire second …)
Assay: as above

Row | Binder | binding result
6 | B1 | binds
7 | B2 | binds
8 | B3 | binds
9 | B4 | binds
10 | B5 | binds

molecular target: human ORAI1 (CRAC channel membrane protein 1) (human, UniProt Q96D31 1-301); assay: cell-based or functional assay
Sequence (Q96D31 whole entry, form in doubt): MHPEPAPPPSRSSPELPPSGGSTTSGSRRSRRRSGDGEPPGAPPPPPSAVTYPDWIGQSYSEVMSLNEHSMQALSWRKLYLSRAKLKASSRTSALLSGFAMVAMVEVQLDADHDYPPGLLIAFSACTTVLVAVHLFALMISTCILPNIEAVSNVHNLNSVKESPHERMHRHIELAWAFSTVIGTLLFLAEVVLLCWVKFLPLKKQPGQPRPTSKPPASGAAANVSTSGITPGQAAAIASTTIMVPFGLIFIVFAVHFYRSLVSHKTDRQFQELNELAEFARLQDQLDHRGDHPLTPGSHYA

Row | Binder | IC50 of inhibition of PBMC (T cell) proliferation, anti-CD3/CD28 stimulation [µg/mL]
11 | B6 | 1

Molecular target: T3, Peptide 1454 (part of the second …)
Assay: direct peptide ELISA, peptide coated at 1 ug/ml; (-) indicates binding could not be detected

Row | Binder | binding result
12 | B1 | no binding
13 | B2 | no binding
14 | B3 | no binding
15 | B4 | no binding
16 | B5 | no binding
